Target: T1, E(Edans)-AAHAAK-(Dabcyl)-NH2 (not fully specified)
T1 chain: AAHAAK

B1: aspergillopepsin II (An01g00530) (protein)
chain: EDYSSNWAGAVLIGDGYTKVTGEFTVPSVSAGSSSSSGYGGGYGYYKNKRQSEEYCASAWVGIDGDTCETAILQTGVDFCYEDGQTSYDAWYEWYPDYAYDFNDITISEGDTIKVTVEATSKSSGSATVENLTTGQSVTHTFSGNVEGDLCETNAEWIVEDFESGDSLVAFADFGSVTFTNAEATSDGSTVGPSDATVMDIEQDGTVLTETSVSGDSVTVTYV
- enzyme activity in relative fluorescent units (rfu) per minute per mg of protein; cleavage of FRET peptide at pH 4: yields by the highest rfu value for aspergillopepsin II
- mass spectrometry of the substrate's cleavage fragments (E(Edans)-AAH and AAK-(Dabcyl)NH2): aspergillopepsin II cleaves histidine at the C-terminal in the E(Edans)-AAHAAK-(Dabcyl)NH2 substrate

— patent publication US20150201663
